Measured values reported in the supplement of paper PMC9112550, “Optimization of the antimicrobial peptide Bac7 by deep mutational scanning” (BMC Biology, 2022).

Test system: Escherichia coli TOP10
Experiment: shrunken log2 fold change of peptide-encoding DNA abundance (4.5 h post-induction vs induction); higher = less antimicrobial activity (less host growth inhibition)
Conditions: time post-induction: 4.5 h; library: site-saturation at positions 5, 18, 19, 20
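Also: peptides expressed intracellularly from a pBAD plasmid library in pooled LB shake-flask culture, induced with 0.3% L-arabinose, DNA abundance read by NGS, three biological replicates, DESeq2 with apeglm shrinkage.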

Sequence | shrunken log2 fold change
RRIRNRPPRLPRPRPRPYLYPRP | -0.317
RRIRGRPPRLPRPRPRPKHEPRP | 0.679
RRIRDRPPRLPRPRPRPYVEPRP | -0.125
RRIRVRPPRLPRPRPRPMAEPRP | 2.52
RRIRSRPPRLPRPRPRPPLYPRP | -0.0605
RRIRIRPPRLPRPRPRPAGMPRP | -0.0321
RRIRTRPPRLPRPRPRPVTTPRP | -0.116
RRIRSRPPRLPRPRPRPVLPPRP | -0.167
RRIRQRPPRLPRPRPRPKWFPRP | -0.107
RRIRSRPPRLPRPRPRPRDAPRP | 0.328
RRIRKRPPRLPRPRPRPDNRPRP | 0.00592
RRIRHRPPRLPRPRPRPLNFPRP | -0.0479
RRIRQRPPRLPRPRPRPIRQPRP | 0.0167
RRIRARPPRLPRPRPRPYGEPRP | -0.168
RRIRPRPPRLPRPRPRPYDEPRP | -0.0606
RRIRWRPPRLPRPRPRPQQTPRP | 0.103
RRIRQRPPRLPRPRPRPWAHPRP | -0.0595
RRIRWRPPRLPRPRPRPEIVPRP | -0.00443
RRIRTRPPRLPRPRPRPASYPRP | -0.347
RRIRTRPPRLPRPRPRPEDCPRP | 0.0288
RRIRTRPPRLPRPRPRPRFYPRP | -0.367
RRIRQRPPRLPRPRPRPSHCPRP | 0.0811
RRIRGRPPRLPRPRPRPFLMPRP | 0.364
RRIRGRPPRLPRPRPRPLAVPRP | 0.809
RRIRVRPPRLPRPRPRPECPPRP | 0.0319

Sequence | shrunken log2 fold change
RRIRHRPPRLPRPRPRPRRHPRP | 0.153
RRIRCRPPRLPRPRPRPSTGPRP | -0.354
RRIRCRPPRLPRPRPRPMWLPRP | -0.235
RRIRFRPPRLPRPRPRPDIQPRP | -0.628
RRIRARPPRLPRPRPRPKVPPRP | 0.412
RRIRSRPPRLPRPRPRPPEIPRP | -0.19
RRIRERPPRLPRPRPRPLWNPRP | -0.298
RRIRWRPPRLPRPRPRPFISPRP | -0.174
RRIRKRPPRLPRPRPRPPSRPRP | 0.772
RRIRPRPPRLPRPRPRPYYCPRP | -0.718
RRIRQRPPRLPRPRPRPIYEPRP | -0.0255
RRIRWRPPRLPRPRPRPDKAPRP | -0.00149
RRIRERPPRLPRPRPRPMWGPRP | -0.016
RRIRIRPPRLPRPRPRPQCRPRP | -0.0364
RRIRERPPRLPRPRPRPLCLPRP | -0.679
RRIRVRPPRLPRPRPRPFLKPRP | -0.602
RRIRGRPPRLPRPRPRPHWAPRP | 0.362
RRIRERPPRLPRPRPRPISHPRP | -0.678
RRIRSRPPRLPRPRPRPKECPRP | -0.043
RRIRVRPPRLPRPRPRPDPMPRP | -0.0769
RRIRTRPPRLPRPRPRPPENPRP | 0.201
RRIRARPPRLPRPRPRPYRTPRP | -0.0383
RRIRNRPPRLPRPRPRPVWDPRP | 0.325
RRIRVRPPRLPRPRPRPKCVPRP | -0.0921
RRIRVRPPRLPRPRPRPWVYPRP | -0.137

Sequence | shrunken log2 fold change
RRIRCRPPRLPRPRPRPPDLPRP | -0.00662
RRIRPRPPRLPRPRPRPMADPRP | 0.131
RRIRKRPPRLPRPRPRPYGKPRP | -0.154
RRIRDRPPRLPRPRPRPTQPPRP | 0.0164
RRIRHRPPRLPRPRPRPYKRPRP | -0.051
RRIRFRPPRLPRPRPRPNGPPRP | -0.0934
RRIRYRPPRLPRPRPRPFGTPRP | -0.158
RRIRHRPPRLPRPRPRPDTMPRP | 0.031
RRIRRRPPRLPRPRPRPFVGPRP | -0.229
RRIRPRPPRLPRPRPRPMIQPRP | 0.0205
RRIRARPPRLPRPRPRPYACPRP | -0.217
RRIRARPPRLPRPRPRPSHEPRP | 0.415
RRIRKRPPRLPRPRPRPVDLPRP | -0.0854
RRIRPRPPRLPRPRPRPNRKPRP | -0.371
RRIRHRPPRLPRPRPRPRKFPRP | 0.15
RRIRNRPPRLPRPRPRPDGLPRP | 0.038
RRIRWRPPRLPRPRPRPHTKPRP | 0.0624
RRIRMRPPRLPRPRPRPILFPRP | -0.385
RRIRPRPPRLPRPRPRPWGCPRP | -0.0706
RRIRQRPPRLPRPRPRPLVWPRP | 0.152
RRIRPRPPRLPRPRPRPMYTPRP | -0.236
RRIRVRPPRLPRPRPRPQDYPRP | -0.125
RRIRERPPRLPRPRPRPNWYPRP | -0.563
RRIRSRPPRLPRPRPRPNGFPRP | -0.0748
RRIRERPPRLPRPRPRPWTFPRP | -0.292

Sequence | shrunken log2 fold change
RRIRTRPPRLPRPRPRPKHGPRP | -0.0288
RRIRGRPPRLPRPRPRPYLQPRP | -0.182
RRIRRRPPRLPRPRPRPECVPRP | 0.419
RRIRFRPPRLPRPRPRPHACPRP | -0.867
RRIRVRPPRLPRPRPRPRWAPRP | 0.343
RRIRLRPPRLPRPRPRPMHYPRP | -0.094
RRIRRRPPRLPRPRPRPDADPRP | 1.78
RRIRNRPPRLPRPRPRPDILPRP | -0.156
RRIRRRPPRLPRPRPRPMWMPRP | 0.0619
RRIRPRPPRLPRPRPRPEYVPRP | -0.0441
RRIRCRPPRLPRPRPRPASHPRP | -0.241
RRIRCRPPRLPRPRPRPMVRPRP | 0.158
RRIRVRPPRLPRPRPRPCWNPRP | 0.0501
RRIRDRPPRLPRPRPRPIKFPRP | -0.236
RRIRERPPRLPRPRPRPTNMPRP | -0.568
RRIRFRPPRLPRPRPRPIIAPRP | -0.413
RRIRLRPPRLPRPRPRPSELPRP | -0.195
RRIRFRPPRLPRPRPRPASVPRP | 0.344
RRIRPRPPRLPRPRPRPRLDPRP | 0.0787
RRIRIRPPRLPRPRPRPQENPRP | -0.494
RRIRQRPPRLPRPRPRPCYDPRP | -0.357
RRIRDRPPRLPRPRPRPLSWPRP | 0.488
RRIRCRPPRLPRPRPRPVNFPRP | -0.484
RRIRHRPPRLPRPRPRPKFSPRP | -0.304
RRIRSRPPRLPRPRPRPQAWPRP | -0.0983

Sequence | shrunken log2 fold change
RRIRWRPPRLPRPRPRPPMTPRP | 0.257
RRIRFRPPRLPRPRPRPSMVPRP | -0.509
RRIRIRPPRLPRPRPRPFPDPRP | -0.131
RRIRRRPPRLPRPRPRPDFGPRP | 0.0803
RRIRFRPPRLPRPRPRPCMLPRP | -0.591
RRIRGRPPRLPRPRPRPYHPPRP | -0.559
RRIRERPPRLPRPRPRPETIPRP | -0.0222
RRIRFRPPRLPRPRPRPDFVPRP | -0.0292
RRIRNRPPRLPRPRPRPIYYPRP | -0.977
RRIRYRPPRLPRPRPRPHFRPRP | -0.444
RRIRKRPPRLPRPRPRPWFEPRP | 0.0346
RRIRARPPRLPRPRPRPAAWPRP | 0.613
RRIRTRPPRLPRPRPRPTCDPRP | 0.0699
RRIRQRPPRLPRPRPRPIASPRP | -0.0483
RRIRGRPPRLPRPRPRPDLPPRP | 0.921
RRIRIRPPRLPRPRPRPDQQPRP | 0.062
RRIRRRPPRLPRPRPRPRPNPRP | 0.624
RRIRIRPPRLPRPRPRPPEQPRP | 0.118
RRIRLRPPRLPRPRPRPTCAPRP | 0.314
RRIRCRPPRLPRPRPRPQWYPRP | -0.321
RRIRKRPPRLPRPRPRPNNGPRP | -0.324
RRIRMRPPRLPRPRPRPFWDPRP | 0.359
RRIRGRPPRLPRPRPRPSPSPRP | 0.649
RRIRCRPPRLPRPRPRPRRDPRP | 0.0823
RRIRSRPPRLPRPRPRPRMPPRP | 0.0543

Sequence | shrunken log2 fold change
RRIRGRPPRLPRPRPRPHLAPRP | 0.601
RRIRVRPPRLPRPRPRPETPPRP | 1.14
RRIRFRPPRLPRPRPRPIFLPRP | -0.196
RRIRTRPPRLPRPRPRPASNPRP | -0.00255
RRIRRRPPRLPRPRPRPDVPPRP | 0.0826
RRIRFRPPRLPRPRPRPSEYPRP | -0.288
RRIRDRPPRLPRPRPRPPDTPRP | 0.662
RRIRQRPPRLPRPRPRPWSLPRP | -0.0828
RRIRERPPRLPRPRPRPSRLPRP | 0.0431
RRIRTRPPRLPRPRPRPHPYPRP | 0.0733
RRIRMRPPRLPRPRPRPCAYPRP | 0.227
RRIRCRPPRLPRPRPRPILMPRP | -0.796
RRIRIRPPRLPRPRPRPFIMPRP | -0.187
RRIRHRPPRLPRPRPRPKSLPRP | -0.0347
RRIRWRPPRLPRPRPRPAAGPRP | 0.545
RRIRFRPPRLPRPRPRPCMYPRP | -0.418
RRIRMRPPRLPRPRPRPTHYPRP | 0.226
RRIRWRPPRLPRPRPRPVGEPRP | 1.01
RRIRWRPPRLPRPRPRPPDRPRP | 0.166
RRIRTRPPRLPRPRPRPPPAPRP | 0.746
RRIRVRPPRLPRPRPRPGKLPRP | 0.126
RRIRWRPPRLPRPRPRPLCLPRP | 0.949
RRIRYRPPRLPRPRPRPRVVPRP | -0.405
RRIRHRPPRLPRPRPRPSKGPRP | -0.149
RRIRLRPPRLPRPRPRPLVQPRP | -0.0853
